Test results reported in US20150051149A1 (published 2015).

Assays:
DRB*0701 = DRB*0701 (human); assay: HLA competition binding
DRB*0301 = DRB*0301 (human, UniProt P01903 26-216); assay: HLA competition binding

Binder	IC50 (DRB*0701) [nM]	IC50 (DRB*0301) [nM]
MGEVVAATPTSLLIS [N-terminal to BC Loop SEQ ID NO 53]	500	1000
PVQEFTVPGSKSTATISGLK [DE Loop SEQ ID NO 51]	> 200000	
PTSLLISWDAPAVTVRYYRITYG [BC Loop SEQ ID NO 58]	1000	
